The source of these data is paper PMC6637311, “Glyceraldehyde-3-Phosphate Dehydrogenase of Babesia microti Is a Plasminogen- and Actin-Binding Protein” (Frontiers in Veterinary Science, 2019).

The test system of the data set is O=C[C@H](O)COP(=O)(O)O. In words: purified protein. The following applies: 0.5 mM NAD+, 50 mM glycine, 50 mM KH2PO4, 5 mM EDTA, pH 9.5, 25 °C.

By Km is commonly meant the substrate concentration at which the rate is half of its maximum. On to rBmGAPDH (Babesia microti strain RI), for which the Km came to 583 µM.
